Tests used:
Assay in all cases: biochemical
Type in all cases: biochemical
266 human kinases [1] = molecular target: 266 human kinases (Homo sapiens, UniProt P07333); settings: Fms(h); 100 μM
Summary of the method: (§1)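 A filter-capture radiometric assay: phosphorylated cationic substrate binds an anionic membrane and is scintillation-counted, with values referenced to full-activity control.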

266 human kinases [2] = molecular target: T1, 266 human kinases (Homo sapiens, UniProt Q15139); settings: PKCμ(h); 100 μM
T1 sequence (Q15139 1-912): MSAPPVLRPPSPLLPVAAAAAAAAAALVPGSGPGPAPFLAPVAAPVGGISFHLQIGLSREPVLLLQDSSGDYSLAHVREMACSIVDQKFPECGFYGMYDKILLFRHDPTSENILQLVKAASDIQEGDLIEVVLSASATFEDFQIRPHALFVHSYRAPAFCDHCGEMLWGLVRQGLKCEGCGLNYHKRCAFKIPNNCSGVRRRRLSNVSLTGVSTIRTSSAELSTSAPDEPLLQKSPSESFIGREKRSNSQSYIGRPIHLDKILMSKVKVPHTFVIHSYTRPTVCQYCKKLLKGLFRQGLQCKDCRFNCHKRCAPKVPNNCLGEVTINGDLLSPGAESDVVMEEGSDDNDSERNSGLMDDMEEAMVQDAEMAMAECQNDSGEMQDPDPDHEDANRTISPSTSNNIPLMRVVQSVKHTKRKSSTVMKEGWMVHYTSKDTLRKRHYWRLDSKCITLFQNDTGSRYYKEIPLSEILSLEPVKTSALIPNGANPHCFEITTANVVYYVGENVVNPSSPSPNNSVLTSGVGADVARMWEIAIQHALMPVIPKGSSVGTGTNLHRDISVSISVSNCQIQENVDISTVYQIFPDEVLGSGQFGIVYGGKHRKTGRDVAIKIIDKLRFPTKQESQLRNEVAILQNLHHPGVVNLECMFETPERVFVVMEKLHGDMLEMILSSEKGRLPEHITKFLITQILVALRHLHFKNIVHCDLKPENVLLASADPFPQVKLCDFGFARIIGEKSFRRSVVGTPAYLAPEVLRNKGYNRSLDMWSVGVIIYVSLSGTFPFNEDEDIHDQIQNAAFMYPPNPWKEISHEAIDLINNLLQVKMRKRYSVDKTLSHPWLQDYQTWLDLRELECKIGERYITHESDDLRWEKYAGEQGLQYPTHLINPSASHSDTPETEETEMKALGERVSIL
Summary of the method: as §1

266 human kinases [3] = molecular target: T2, 266 human kinases (Homo sapiens, UniProt O60285); settings: ARK5(h); 100 μM
T2 sequence (O60285 1-661): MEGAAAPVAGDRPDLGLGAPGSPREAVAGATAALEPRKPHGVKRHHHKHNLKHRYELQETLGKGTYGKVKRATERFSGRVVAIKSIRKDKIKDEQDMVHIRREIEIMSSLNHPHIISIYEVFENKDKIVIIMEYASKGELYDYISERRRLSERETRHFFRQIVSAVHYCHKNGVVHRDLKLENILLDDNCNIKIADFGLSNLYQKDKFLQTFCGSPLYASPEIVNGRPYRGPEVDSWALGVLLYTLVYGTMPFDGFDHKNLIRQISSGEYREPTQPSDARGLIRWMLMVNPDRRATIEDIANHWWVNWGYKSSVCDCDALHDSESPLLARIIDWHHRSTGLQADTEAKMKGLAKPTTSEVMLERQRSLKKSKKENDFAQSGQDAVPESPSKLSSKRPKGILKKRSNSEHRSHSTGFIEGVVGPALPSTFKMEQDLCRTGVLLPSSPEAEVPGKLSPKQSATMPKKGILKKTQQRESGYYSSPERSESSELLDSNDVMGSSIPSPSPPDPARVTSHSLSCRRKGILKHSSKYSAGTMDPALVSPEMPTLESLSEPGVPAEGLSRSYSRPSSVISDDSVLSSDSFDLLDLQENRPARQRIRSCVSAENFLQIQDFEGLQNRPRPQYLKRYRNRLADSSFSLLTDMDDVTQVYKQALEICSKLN
Summary of the method: as §1

266 human kinases [4] = molecular target: 266 human kinases (Homo sapiens, UniProt P78362); settings: SRPK2(h); 100 μM
Summary of the method: as §1

266 human kinases [5] = molecular target: 266 human kinases (Homo sapiens, UniProt O96013); settings: PAK4(h); 100 μM
Summary of the method: as §1

266 human kinases [6] = molecular target: T3, 266 human kinases (Homo sapiens, UniProt Q12851); settings: GCK(h); 100 μM
T3 sequence (Q12851 1-820): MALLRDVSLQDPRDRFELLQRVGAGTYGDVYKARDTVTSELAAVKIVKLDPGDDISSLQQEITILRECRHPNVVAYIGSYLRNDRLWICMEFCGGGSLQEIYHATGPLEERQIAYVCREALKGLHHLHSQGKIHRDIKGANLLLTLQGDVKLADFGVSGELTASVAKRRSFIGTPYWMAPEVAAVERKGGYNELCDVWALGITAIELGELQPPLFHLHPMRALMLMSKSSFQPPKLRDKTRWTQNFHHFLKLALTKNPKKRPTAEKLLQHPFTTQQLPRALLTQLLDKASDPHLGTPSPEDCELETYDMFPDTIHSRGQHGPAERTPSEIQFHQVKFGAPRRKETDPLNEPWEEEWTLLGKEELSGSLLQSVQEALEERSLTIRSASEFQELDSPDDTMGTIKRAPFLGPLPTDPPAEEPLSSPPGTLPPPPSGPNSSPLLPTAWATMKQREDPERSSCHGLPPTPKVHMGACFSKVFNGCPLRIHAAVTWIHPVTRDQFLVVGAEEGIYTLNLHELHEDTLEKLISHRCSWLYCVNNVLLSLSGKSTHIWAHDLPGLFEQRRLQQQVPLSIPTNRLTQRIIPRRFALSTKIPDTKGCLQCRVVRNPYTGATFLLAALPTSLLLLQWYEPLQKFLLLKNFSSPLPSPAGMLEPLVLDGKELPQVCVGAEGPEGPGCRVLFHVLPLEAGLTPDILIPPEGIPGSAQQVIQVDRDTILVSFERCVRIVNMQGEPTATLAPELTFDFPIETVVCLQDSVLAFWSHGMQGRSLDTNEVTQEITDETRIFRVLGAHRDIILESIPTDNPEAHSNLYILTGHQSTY
Summary of the method: as §1

266 human kinases (Homo sapiens, UniProt O96013), sequence (O96013 whole entry): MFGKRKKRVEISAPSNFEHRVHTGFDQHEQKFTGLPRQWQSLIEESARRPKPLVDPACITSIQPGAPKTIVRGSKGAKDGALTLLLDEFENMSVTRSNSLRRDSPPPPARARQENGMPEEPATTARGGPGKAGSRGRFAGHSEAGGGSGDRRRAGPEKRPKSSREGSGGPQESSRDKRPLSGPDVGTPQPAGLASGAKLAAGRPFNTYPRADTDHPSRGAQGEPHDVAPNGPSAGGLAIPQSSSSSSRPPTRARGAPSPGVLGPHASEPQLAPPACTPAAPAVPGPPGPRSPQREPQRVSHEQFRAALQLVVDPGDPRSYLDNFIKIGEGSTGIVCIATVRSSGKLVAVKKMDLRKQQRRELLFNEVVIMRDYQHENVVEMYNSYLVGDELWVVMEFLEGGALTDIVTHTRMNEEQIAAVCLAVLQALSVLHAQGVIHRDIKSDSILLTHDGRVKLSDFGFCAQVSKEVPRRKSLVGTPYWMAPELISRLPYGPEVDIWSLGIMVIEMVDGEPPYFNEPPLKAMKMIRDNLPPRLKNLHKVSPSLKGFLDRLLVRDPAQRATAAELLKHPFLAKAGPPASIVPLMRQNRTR
266 human kinases (Homo sapiens, UniProt P78362), sequence (P78362 whole entry): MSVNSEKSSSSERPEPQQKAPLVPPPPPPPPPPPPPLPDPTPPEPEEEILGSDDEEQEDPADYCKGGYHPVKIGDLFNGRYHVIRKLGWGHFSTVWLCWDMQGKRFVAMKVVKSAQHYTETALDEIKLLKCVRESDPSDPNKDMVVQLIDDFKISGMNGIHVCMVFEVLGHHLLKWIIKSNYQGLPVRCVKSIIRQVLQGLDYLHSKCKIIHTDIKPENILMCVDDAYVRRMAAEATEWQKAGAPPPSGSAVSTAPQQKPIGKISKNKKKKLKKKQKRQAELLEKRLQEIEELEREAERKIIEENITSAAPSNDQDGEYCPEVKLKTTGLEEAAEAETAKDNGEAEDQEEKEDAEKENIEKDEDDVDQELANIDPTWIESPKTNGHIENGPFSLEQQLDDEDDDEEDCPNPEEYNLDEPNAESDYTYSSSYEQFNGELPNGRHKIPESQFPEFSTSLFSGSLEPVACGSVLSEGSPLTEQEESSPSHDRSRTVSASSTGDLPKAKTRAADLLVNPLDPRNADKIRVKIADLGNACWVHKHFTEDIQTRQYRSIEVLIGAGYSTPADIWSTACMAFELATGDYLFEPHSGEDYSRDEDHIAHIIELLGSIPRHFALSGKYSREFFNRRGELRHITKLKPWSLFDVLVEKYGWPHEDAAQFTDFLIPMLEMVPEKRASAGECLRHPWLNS

Sequence	% activity (266 human kinases [1])	% activity (266 human kinases [2])	% activity (266 human kinases [3])	% activity (266 human kinases [4])	% activity (266 human kinases [5])	% activity (266 human kinases [6])
HRRIKAWLKKIKALARQLGVAA (mammal) [MMI-0500]	14%	10%	20%	80%	86%	30%
YARAAARQARAKALNRQLGVA (mammal) [MMI-0200]	92%	73%	93%	100%	98%	99%

— US20140072613A1, “Compositions and Methods for Treating Cutaneous Scarring” (priority 2012, published 2014)
